Common to all, as to assay: NMR titration
The target of test [1] is talin F3 K324D (mouse) (UniProt P26039).
In test [2] the target is talin F3 Y377A (mouse) (UniProt P26039).
Test [3] addresses β3-integrin tail (UniProt P05106).
Test [4] concerns the target U-15N-labeled talin F3 (309–405) (mouse, UniProt P26039 309-405).
Test [5] deals with talin 1655–1822 rod domain (mouse, UniProt P26039 1655-1822).
The target of test [6] is talin 1655–1822 S1684D (mouse, UniProt P26039 1655-1822, S1684D).
In test [7] the target is talin 1655–1822 Q1764A (mouse, UniProt P26039 1655-1822, Q1764A).
Test [8] has as its target talin 1655–1822 T1767A (mouse, UniProt P26039 1655-1822, T1767A).
Test [9] addresses talin 1655–1822 Y1777A (mouse, UniProt P26039 1655-1822, Y1777A).

The values below come from publication PMC2685691 (The Journal of Biological Chemistry, 2009).

Values joined by “and” are separate entries in the source; they are usually repeats but may differ in a detail not shown here. Equal values may be shown once.

Chain of talin 1655–1822 rod domain (mouse, UniProt P26039 1655-1822) (P26039 1655-1822): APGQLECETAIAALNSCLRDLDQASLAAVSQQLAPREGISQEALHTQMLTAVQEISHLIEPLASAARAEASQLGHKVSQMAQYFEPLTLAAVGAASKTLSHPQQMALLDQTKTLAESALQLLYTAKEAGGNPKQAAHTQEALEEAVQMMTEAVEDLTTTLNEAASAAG
Chain of talin 1655–1822 S1684D (P26039 1655-1822 S1684D): as the sequence (P26039 1655-1822) above, with S30D counted along it
Chain of talin 1655–1822 Q1764A (P26039 1655-1822 Q1764A): as the sequence (P26039 1655-1822) above, with Q110A counted along it
Chain of U-15N-labeled talin F3 (309–405) (P26039 309-405): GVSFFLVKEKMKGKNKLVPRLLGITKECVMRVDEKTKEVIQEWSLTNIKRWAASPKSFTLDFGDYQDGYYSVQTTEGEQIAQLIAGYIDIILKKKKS
Chain of talin 1655–1822 Y1777A (P26039 1655-1822 Y1777A): as the sequence (P26039 1655-1822) above, with Y123A counted along it
Chain of talin 1655–1822 T1767A (P26039 1655-1822 T1767A): as the sequence (P26039 1655-1822) above, with T113A counted along it

As to “talin 1655–1822 rod domain (from UniProt P26039 1655-1822) (domain or fragment)”, the fold decrease in affinity against wild-type F3 in [1] came to 23 fold. This molecule also returned a fold decrease in binding affinity against wild-type F3 in test [2] of 5 fold.
For orientation: Kd means the free concentration of one partner at which half of the binding sites on the other are occupied at equilibrium, for simple one-to-one binding. Low values mean a tighter complex, high ones a looser complex. As for “M319A F3 mutant (from UniProt P26039 309-405) (domain or fragment)”, the Kd in test [3] is 225 µM.

B1: β3-integrin tail (domain or fragment)
chain: KLLITIHDRKEFAKFEEERARAKWDTANNPLYKEATSTFTNITYRGT
Take B1: the Kd in test [4] came to 273 ± 6 µM.

B2: talin F3 FERM subdomain (residues 309–400) (domain or fragment)
chain: GVSFFLVKEKMKGKNKLVPRLLGITKECVMRVDEKTKEVIQEWSLTNIKRWAASPKSFTLDFGDYQDGYYSVQTTEGEQIAQLIAGYIDIIL
Take B2: the Kd in test [5] was 11 µM and 9 µM. Moreover, the binding result in test [6], in test [7], in test [8] and in test [9] was “binds” in each case.
